Substitutions are numbered along the chain they refer to. One block for each binder: values may come before it.
Tests used:
[1] = target: T1, endogenous human Tie1 of primary human endothelial cells (HDMEC/HDMVEC, HUVEC) and human tissues (human, UniProt P35590 25-1138); experiment: Western blot, HDMEC
T1 construct: also called endogenous Tie1; Tie-1 in HUVEC
Procedure: (§1) COS1 cells were transfected with pcDNA3-Tie1-V5 (1 μg DNA per 10 cm cell culture plate) using FUGENE 6 (Roche) according to manufacturer's instruction and incubated for 48 h before stimulation. For immunoprecipitation, Tie1 transfected cells and HMVEC cells were lysed in DOC-RIPA lysis buffer (50 mM Tris-HCl pH 8.0, 150 mM NaCl, 1% Triton-X-100, 0.1% SDS, 1% DOC, 10 mM EDTA) supplemented with aprotinin, leupeptin, PMSF and sodium vanadate. Immunoprecipitation was carried out from equal amount of cell lysates by incubating with polyclonal anti-human Tie1 antibodies (R&D), monoclonal anti-V5 antibodies (Invitrogen) or altogether 23 anti-Tie1 antibodies (1μg/ml) for 1 to 2 h followed by incubation with protein G-Sepharose (Amersham Pharmacia Biotech AB) for 1 h. The immunoprecipitates were washed twice with PBS-T and twice with PBS, followed by elution with the Laemmli buffer and separation in 8% SDS-PAGE. The blots were probed with the 23 anti-Tie1 antibodies (5 μg/ml) and subsequently anti-human Fc antibodies conjugated with HRP.
(§2) Next, to find out if the anti-Tie1 antibodies recognize Tie1 in living cells, those cells were studied by immunofluorescence staining.

[2] = target: T2, human Tie1, full length, V5-tagged (pcDNA3-Tie1-V5), in transiently transfected COS1 cells (human, UniProt P35590 25-1138); experiment: Western blot, Tie1-V5-transfected COS1
T2 construct: it is not expressly tied to the pcDNA3-Tie1-V5 construct; also called Tie1-transfected; transfected Tie1
Procedure: as §1, §2

[3] = target: T3, recombinant human Tie1-Fc (Tie1 extracellular domain fused to human Fc) (human, UniProt P35590 25-759); experiment: BIAcore, Fab over biotinylated human Tie1-Fc on streptavidin chip, 1:1 fit
T3 construct: also called Tie-1 Fc Human; not shown: human Fc
T3 sequence: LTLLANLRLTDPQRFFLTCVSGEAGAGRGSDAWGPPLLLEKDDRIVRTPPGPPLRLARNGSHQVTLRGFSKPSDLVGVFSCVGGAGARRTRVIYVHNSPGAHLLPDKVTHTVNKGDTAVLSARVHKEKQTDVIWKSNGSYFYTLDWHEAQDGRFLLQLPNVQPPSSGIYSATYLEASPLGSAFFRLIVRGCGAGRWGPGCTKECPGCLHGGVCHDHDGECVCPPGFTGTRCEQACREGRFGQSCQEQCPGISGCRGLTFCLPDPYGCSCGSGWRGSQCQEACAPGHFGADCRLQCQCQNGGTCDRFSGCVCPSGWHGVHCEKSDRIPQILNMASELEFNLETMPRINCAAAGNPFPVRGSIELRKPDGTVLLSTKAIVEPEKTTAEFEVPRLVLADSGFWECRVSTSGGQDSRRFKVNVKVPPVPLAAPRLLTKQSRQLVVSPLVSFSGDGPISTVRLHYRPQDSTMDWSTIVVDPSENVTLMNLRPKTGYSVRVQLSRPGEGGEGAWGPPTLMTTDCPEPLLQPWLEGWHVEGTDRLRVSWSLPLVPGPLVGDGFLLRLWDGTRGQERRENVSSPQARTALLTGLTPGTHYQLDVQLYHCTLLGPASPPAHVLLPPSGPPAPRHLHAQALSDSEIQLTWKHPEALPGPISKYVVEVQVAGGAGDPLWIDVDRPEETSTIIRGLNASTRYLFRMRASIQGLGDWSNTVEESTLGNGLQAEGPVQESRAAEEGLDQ
Procedure: Recombinant purified human Tie1-Fc antigen (Stock 2.45 mg/ml) was biotinylated using the EZ-link Sulfo-NHS-SS-Biotin (Pierce, Cat. 21331). The reaction was performed for 2 hours on ice in 50 mM sodium carbonate buffer, pH 9.6, in the presence of a 5-fold molar excess of biotinylating agent and was stopped by the addition of Tris-HCl, pH 7.5 (50 mM final concentration) followed by a 1-hour incubation on ice. Samples were then dialyzed against PBS. The antigen was then diluted 1/100 fold in HBS and was then captured onto a streptavidin chip. This was coated to a density of 830RU (resonance units). All analysis was performed in HBS buffer. […] Serial dilutions were made of each Fab preparation to obtain 10 nM, 5 nM, 2.5 nM, and 1.25 nM solutions. For the association phase samples were injected at 30 μl/min for 4 minutes using kinject program. This was followed by a 10 minutes dissociation phase, any remaining sample was stripped from the Tie-1 Fc surface at a flow of 50 μl/min with a single injection of 5 mM NaOH+1M NaCl for 18 seconds. All samples were run and analyzed in duplicate.
(§3) Sensorgrams were analyzed using the simultaneous ka/kd fitting program with 1:1 model in the BIAEVALUATION™ software 3.1.

[4] = target: T4, recombinant mouse Tie1-Fc (mouse, UniProt Q06806 23-755, limits assumed); experiment: BIAcore, Fab over biotinylated mouse Tie1-Fc on streptavidin chip, 1:1 fit
T4 construct: also called Tie-1 Fc Mouse; not shown: Fc
T4 sequence (looked up): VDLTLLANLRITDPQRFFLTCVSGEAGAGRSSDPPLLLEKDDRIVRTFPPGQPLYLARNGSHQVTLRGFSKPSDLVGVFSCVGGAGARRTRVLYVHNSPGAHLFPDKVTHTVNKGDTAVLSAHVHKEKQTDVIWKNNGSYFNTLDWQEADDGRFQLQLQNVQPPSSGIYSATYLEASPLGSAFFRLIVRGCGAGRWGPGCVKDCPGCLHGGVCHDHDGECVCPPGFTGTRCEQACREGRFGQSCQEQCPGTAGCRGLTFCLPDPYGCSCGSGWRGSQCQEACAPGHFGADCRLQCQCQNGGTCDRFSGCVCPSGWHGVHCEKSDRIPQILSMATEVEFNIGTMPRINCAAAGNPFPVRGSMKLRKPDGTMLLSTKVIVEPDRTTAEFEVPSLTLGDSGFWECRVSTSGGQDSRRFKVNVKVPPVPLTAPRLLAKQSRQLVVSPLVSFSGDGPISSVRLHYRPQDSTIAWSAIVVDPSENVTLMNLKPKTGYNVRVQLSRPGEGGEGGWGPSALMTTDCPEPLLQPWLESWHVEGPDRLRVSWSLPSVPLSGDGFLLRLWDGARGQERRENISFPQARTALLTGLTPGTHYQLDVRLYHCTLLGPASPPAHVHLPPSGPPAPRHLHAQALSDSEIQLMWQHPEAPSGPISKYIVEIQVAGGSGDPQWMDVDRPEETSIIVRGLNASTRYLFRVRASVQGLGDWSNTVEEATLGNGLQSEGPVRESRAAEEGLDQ
Procedure: Mouse Tie 1-Fc antigen (0.5 mg/ml stock) was biotinylated using established procedures and after dilution 1/100 fold in HBS this was then used for capturing to a streptavidin chip. This was coated to a resonance value of 740RU. All analysis was performed in HBS buffer. […] Serial dilutions were made of each Fab preparation to obtain 10 nM, 5 nM, 2.5 nM, and 1.25 nM. For the association phase samples were injected at 30 μl/min for 4 minutes using kinject program. This was followed by a 10 minutes dissociation phase, any remaining sample was stripped from the Tie-1 Fc surface at a flow of 50 μl/min with a single injection of 50 mM NaOH+1 M NaCl for 18 seconds. All samples were run and analyzed in duplicate.
as §3

[5] = target: T3, recombinant human Tie1-Fc (Tie1 …); experiment: BIAcore, Fab over human Tie-1/Fc coupled to CM5 chip, 1:1 fit
Procedure: Recombinant human Tie-1/Fc was coated on a CM5 chip. The surface of the chip was first activated with a 7-minute pulse of 0.05 M NHS/0.2 M EDC, then Tie-1/Fc (2 μg/ml in 10 mM sodium acetate, pH 4.0) was run over the chip surface until 750 RUs were coated on the surface. All flow cells were subsequently deactivated with a 7-minute pulse of 1 M ethanolamine hydrochloride, pH 8.5. All further experiments were performed in HBS buffer.
A series of dilution (50, 25, 12.5, 6.25 and 3.125 nM) was prepared in HBS buffer. Samples were injected at 30 μl/min for 5.3 minutes using the KINJECT™ program. This was followed by a 10-minute dissociation phase, and the remaining Fab was stripped from the surface with a single 18-sec injection of 50 mM NaOH/1 M NaCl.
Sensorgrams were analyzed using the simultaneous ka/kd fitting program from the BIAEVALUATION™ software 3.1 assuming a 1:1 model.

binding result [1]: binds
binding result [2]: binds
B2: P-C6 IgG (anti-Tie1 isolate p-C6, human IgG1) (antibody, V domains shown)
VH: EVQLLESGGGLVQPGGSLRLSCAASGFTFSHYGMTWVRQAPGKGLEWVSVISPSGGQTGYADSVKGRFTISRDNSKNTLYLQMNSLRAEDTAVYYCAGGGYAAFDYWGQGTLVTVSS
VL: DIQMTQSPATLSLSPGERATLSCRASQSVSSYLAWYQQKPGQAPRLLIYDASNRATGIPARFSGSGSGTDFTLTISSLEPEDFAVYYCQQRSNWPLTFGGG
notes: the VL entry stops within FR4

binding result [1]: binds
binding result [2]: binds
B3: P-D12 IgG (anti-Tie1 isolate p-D12, human IgG1) (antibody, V domains shown)
VH: EVQLLESGGGLVQPGGSLRLSCAASGFTFSGYGMHWVRQAPGKGLEWVSVISPSGGQTSYADSVKGRFTISRDNSKNTLYLQMNSLRAEDTAVYYCARDRQYYYGSGSLDYWGQGTLVTVSS
VL: DIQMTQSPSSLSASVGDRVTVTCRASQSISSYLNWYQQKPGKAPKLLIYAASSLQSGVPSRFSGGGSGTDFTLTISSLQPEDFATYFCLQDYKYPWTFGQG
notes: the VL entry stops within FR4

binding result [1]: binds
binding result [2]: binds
B4: P-G3 IgG (anti-Tie1 isolate p-G3, human IgG1) (antibody, V domains shown)
VH: EVQLLESGGGLVQPGGSLRLSCAASGFTFSHYMMVWVRQAPGKGLEWVSSIYPSGGWTYYADSVKGRFTISRDNSKNTLYLQMNSLRAEDTAVYYCARLDYGGNSAYFDYWGQGTLVTVSS
VL: QSVLTQPHSVSASPGKTVTISCTRSSGNIASNFVQWYQQRPGSVPTTVIYEDDRRPSGVPDRFSGSIDSSSNSAFLSISGLKTEDEADYYCQSHDRTTRAWVFGGGTKL
notes: lambda VL entry stops within FR4

binding result [1]: binds
binding result [2]: binds
B8: P-F3 IgG (anti-Tie1 isolate p-F3, human IgG1) (antibody, V domains shown)
VH: EVQLLESGGGLVQPGGSLRLSCAASGFTFSMYGMGWVRQAPGKGLEWVSVISPSGGQTAYADSVKGRFTISRDNSKNTLYLQMNSLRAEDTAVYYCARVALLLGHAFDIWGQGTMVTVSS
VL: DIQMTQSPSTLSASLGDRVTITCRASESISRWLAWYQQKPGKAPKLLMYEASTLESGVPSRFTGTGSGTEFTLTISSLQPDDFATYYCQQRSNWPLTFGGG
notes: the VL entry stops within FR4

The next lines start with the binder.

B1: P-F4 IgG (anti-Tie1 isolate p-F4, human IgG1) (antibody, V domains shown)
VH: EVQLLESGGGLVQPGGSLRLSCAASGFTFSAYMMSWVRQAPGKGLEWVSSIYPSGGYTYYADSVKGRFTISRDNSKNTLYLQMNSLRAEDTAVYYCARGLRGGPDYWGQGTLVTVSS
VL: DIQMTQSPSTLSAYVGDSVTITCRASQSVRRSLAWYQQRPGKAPKSLIYKASTLETGVPPRFSGSGSGTEFTLTISSLQPEDSAIYYCQQYGSFPLTFGGG
notes: the VL entry stops within FR4
binding result [1]: binds
binding result [2]: binds

B5: germlined E3 Fab (light chain framework regions germlined to DPK4; heavy chain as parental) (Fab, V domains shown)
VH: EVQLLESGGGLVQPGGSLRLSCAASGFTFSMYGMVWVRQAPGKGLEWVSVISPSGGNTGYADSVKGRFTISRDNSKNTLYLQVNSLRAEDTAVYYCARAPRGYSYGYYYWGQGTLVTVSS
VL: DIQMTQSPSSLSASVGDRVTITCRASQGIGHYLAWYQQKPGKVPKLLIYTASTLQSGVPSRFSGSGSGTDFTLTISSLQPEDVATYYCQQFNSYPHTFGQGTRLEIK
notes: also called germlined Fab E3; E3 germlined
Kd [3]: 3.4 nM
koff [3]: 0.00102 s⁻¹
kon [3]: 300000 M⁻¹ s⁻¹
Kd [4]: 3.1 nM
koff [4]: 0.00104 s⁻¹
kon [4]: 340000 M⁻¹ s⁻¹

B6: E3 Fab (parental, soluble Fab) (Fab, V domains shown)
VH: B5 VH
VL: B5 VL with S9L, S76N, E105D
notes: also called parental E3 Fab; parental Fab E3
Kd [5]: 12 nM
koff [5]: 0.00105 s⁻¹
kon [5]: 88100 M⁻¹ s⁻¹
Kd [3]: 2 nM
koff [3]: 0.00061 s⁻¹
kon [3]: 300000 M⁻¹ s⁻¹
Kd [4]: 3.9 nM
koff [4]: 0.00095 s⁻¹
kon [4]: 246000 M⁻¹ s⁻¹

B7: E3b Fab (germlined heavy chain and germlined light chain of E3) (Fab, V domains shown)
VH: B5 VH with V83M
VL: B5 VL
notes: also called Fab E3b; germlined (E3b)
Kd [5]: 7 nM
koff [5]: 0.00101 s⁻¹
kon [5]: 136000 M⁻¹ s⁻¹

— patent US20060024297A1 (published 2006)
